According to the supplement of paper PMC7877785:
± gives the uncertainty stated by the source.

Experiment: self-splicing fitness, log relative to wild type (ln ratio); higher = more splicing; Tetrahymena group I intron in knt gene, E. coli kanamycin selection, DiMSum; sequences stand for … in CUCUCU…GGAGGGAAAAGUUAUCAGGCAUGCACCUGGUAGCUAGUCUUUAAACCAAUAGAUUGCAUCGGUUUAAAAGGCAAGACCGUCAAAUUGCGGGAAAGGGGUCAACAGCCGUUCAGUACCAAGUCUCAGGGGAAACUUUGAGAUGGCCUUGCAAAGGGUAUGGUAAUAAGCUGACGGACAUGGUCCUAACCACGCAGCCAAGUCCUAAGUCAACAGAUCUUCUGUUGAUAUGGAUGCAGUUCACAGACUAAAUGUCGGUCGGGGAAGAUGUAUUCUUCUCAUAAGAUAUAGUCGGACCUCUCCUUAAUGGGAGCUAGCGGAUGAAGUGAUGCAACACUGGAGCCGCUGGGAACUAAUUUGUAUGCGAAAGUAUAUUGAUUAGUUUUGGAGUACUCGUGGUCG
How it was run: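 Library with all eight P1ex-region intron nucleotides randomised, intron inside the knt kanamycin-resistance gene on pET-22b(+), in E. coli BL21(DE3). Cells grew overnight at 37°C or 30°C on LB agar with or without 25 μg/mL kanamycin (plus 100 μg/mL carbenicillin, 50 μM IPTG, 0.2% rhamnose), in six replicate transformations. Pooled colonies were amplicon-sequenced on Illumina HiSeq 2500. DiMSum fitness is the error-weighted combination of wild-type-normalised replicate fold changes, kanamycin versus none.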

Row | Sequence | self-splicing fitness (ln) (30 °C) | self-splicing fitness (ln) (37 °C)
1 | GGUAAGCAAUAUUACGACUC | 0.295 ± 0.12 | -0.605 ± 0.18
2 | UCUUAGCAAUAUUACGUCGU | -2.2 ± 0.12 | -1.92 ± 0.12
3 | ACUGAGCAAUAUUACGUCUU | -2.57 ± 0.13 | -1.11 ± 0.12
4 | UGCAAGCAAUAUUACGCAGC | -3.6 ± 0.23 | -2.58 ± 0.23
5 | GACGAGCAAUAUUACGUGCU | -2.92 ± 0.19 | -2.4 ± 0.23
6 | CGUCAGCAAUAUUACGUCUU | -2.3 ± 0.14 | -0.743 ± 0.11
7 | UGAGAGCAAUAUUACGUGCA | -1.53 ± 0.087 | -0.611 ± 0.1
8 | CUUGAGCAAUAUUACGGCGU | -3.95 ± 0.34 | -2.76 ± 0.26
9 | CGAUAGCAAUAUUACGUGGA | -1.9 ± 0.24 | -2.62 ± 0.31
10 | AGGAAGCAAUAUUACGGGAC | -3.5 ± 0.46 | -1.67 ± 0.23
11 | AAUGAGCAAUAUUACGCACG | -3.21 ± 0.36 | 
12 | CGGAAGCAAUAUUACGGGUG | -0.485 ± 0.09 | 0.544 ± 0.086
13 | GACCAGCAAUAUUACGUCCA | -1.75 ± 0.095 | -0.749 ± 0.095
14 | CGUUAGCAAUAUUACGUAUC |  | -2.15 ± 0.28
15 | CGCUAGCAAUAUUACGACCA | -1.86 ± 0.093 | -1.24 ± 0.12
16 | CUUGAGCAAUAUUACGGGGG | -2.81 ± 0.2 | -3.25 ± 0.39
17 | AUACAGCAAUAUUACGGCUU | 0.0959 ± 0.047 | 0.115 ± 0.057

Row | Sequence | self-splicing fitness (ln) (30 °C) | self-splicing fitness (ln) (37 °C)
18 | AGCUAGCAAUAUUACGACAC | -2.07 ± 0.15 | -1.11 ± 0.16
19 | GAAAAGCAAUAUUACGGACG | -1.05 ± 0.092 | -0.401 ± 0.1
20 | UUUAAGCAAUAUUACGACGU | -1.73 ± 0.15 | -0.17 ± 0.15
21 | CGCCAGCAAUAUUACGCAAG | -1.03 ± 0.077 | -0.526 ± 0.091
22 | GCUAAGCAAUAUUACGCAAU | -1.55 ± 0.17 | -1.75 ± 0.15
23 | AUACAGCAAUAUUACGUUUG | -2.93 ± 0.11 | -2.35 ± 0.14
24 | UACCAGCAAUAUUACGGUGU | -3.64 ± 0.14 | -2.36 ± 0.13
25 | UGGUAGCAAUAUUACGCCCG | 0.0173 ± 0.14 | -0.718 ± 0.17
26 | GCUGAGCAAUAUUACGUCGC | -2.96 ± 0.26 | -2.17 ± 0.24
27 | UGGCAGCAAUAUUACGAGUA | -1.75 ± 0.15 | -1.46 ± 0.13
28 | CGGCAGCAAUAUUACGGAGC | -3.37 ± 0.14 | -3.3 ± 0.2
29 | UGCAAGCAAUAUUACGGACC | -0.803 ± 0.088 | -1.12 ± 0.16
30 | GUUAAGCAAUAUUACGUAUA | -1.79 ± 0.14 | -1.54 ± 0.15
31 | AAAAAGCAAUAUUACGACCG | -0.107 ± 0.13 | -0.00629 ± 0.17
32 | ACUGAGCAAUAUUACGUGGG | -3.55 ± 0.21 | -2.28 ± 0.16
33 | GAUCAGCAAUAUUACGUUCU | -2.42 ± 0.1 | -1.46 ± 0.12
34 | UUCGAGCAAUAUUACGAUUA | -1.39 ± 0.26 | -0.875 ± 0.25
